Assay results published in the DeepSol protein solubility set.

test: soluble on expression in E. coli; label from the status in PepcDB or PDB records

Sequence	soluble on expression in E. coli
MCTALMAIPEDGDTEVVSEKTFKVFSLLNLDAPYLHDKAHVTEEEEITGCCGRRKGALIATMQVDEIGVMPGMTSKISLTVENKTKKRKKWMRKKDNHECVLLSLCQQLDFVAVNRNDPMMIDRKSITIAVESHGTCKTKAGVGPQTKEIEFSVPPNLPPTSIHANRLVTVSYFFKLDLDHFDLVLPVIVGSVKSSASNGSEK	not soluble
GMENIPFLRASTVPVIEYLDELKEIDASHIYTNYGPINQRFEQTIMSGFFQNRGAVTTVANATLGLMAAIQLKKRKKGKYALMPSFTFPATPLAAIWCGLEPYFIDISIDDWYMDKTVLWDKIEELKEEVAIVVPYATFGSWMNLEEYEELEKKGVPVVVDAAPGFGLMNGGMHYGQDFSGMIIYSFHATKPFGIGEGGLIYSKNEEDIQRIKRMGNFGFDTNRECTMMGFNCKMSEYAAAIGIATMKKWDDKLKERTRISEWYKQLLQSNGLMKKGWQLQKTEAVIQQFMPILCPEEVRNKQVIEDLKKQKIEARLYFSPSCHQQVLFRNYKSTDLTRTNKIAKRIVSLPLWEGMTKEIVEQIVICLGQKVVSADE	soluble
MFSPVKSTKVYEQIIEQFKIMIANGTLKKGDKLPSERELVSQLGVSRASIREALSALQMIGFVEARHGEGNFIRENFEESLIDPFLLIFMLNGSNKEQILELRRIIEVETAALAAKKITDEEVKELEVCLENLTEAENETLKGKYDKKFHYNIAKASKNILIVNMLNAVSSLMDSFISEARGRILMVEDNKNVLMKQHRSMLEALKNHDSKAASNAMSEHLDLIYEYIIKK	not soluble
MGKFMMEKFVQTVSSVNYNKGVFSLYFVGQDQKNMAHGVMAESDNDLELKQVVHMPASGFMYMVSMIKNMLEDPRMEAEFNKLVAAGFLPAGDATANSAEDAAAEEKTAAKKRPAQVKK	not soluble
MYQSYPQQQQPGYQPQQPSHPIVGAGAAPTMAPQNPYGQQPFQPQFQQGQYQQPSGQQYQSMQQQFQSPQQQAPTQPTHPDRESYQTALPANVTPGWNDPPSMLPSAGTTPNRLSNMRRRPVDPSISGNVGYGTSSQTSNPYGASASPYGAPQQNPQQYQEQPQSYQTYQQPQQQQPQYGQQQNPQQFGQQYPGAGAPHQQQHYGM	not soluble
AAADSTSMSYSVTLTGPGPWGFRLQGGKDFNMPLTISRITPGSKAAQSQLSQGDLVVAIDGVNTDTMTHLEAQNKIKSASYNLSLTLQKSKRPIPISTTAPPVQTPLPVIPHQKDPALDTNGSLVAPSPSPEARASPGTPGTPELRPTFSPAFSRPSAFSSLAEASDPGPPRASLRAKTSPEGARDLLGPKALPGSSQPRQYNNPIGLYSAETLREMAQMYQMSLRGKASGVGLPGGSLPIKDLAVDSASPVYQAVIKSQNKPEDEADEWARRSSNLQSRSFRILAQMTGTEFMQDPDEEALRRSSTPIEHAPVCTSQATTPLLPASAQPPAAASPSAASPPLATAAAHTAIASASTTAPASSPADSPRPQASSYSPAVAASSAPATHTSYSEGPAAPAPKPRVVTTASIRPSVYQPVPASTYSPSPGANYSPTPYTPSPAPAYTPSPAPAYTPSPVPTYTPSPAPAYTPSPAPNYNPAPSVAYSGGPAEPASRPPWVTDDSFSQKFAPGKSTTSISKQTLPRGGPAYTPAGPQVPPLARGTVQRAERFPASSRTPLCGHCNNVIRGPFLVAMGRSWHPEEFTCAYCKTSLADVCFVEEQNNVYCERCYEQFFAPLCAKCNTKIMGEVMHALRQTWHTTCFVCAACKKPFGNSLFHMEDGEPYCEKDYINLFSTKCHGCDFPVEAGDKFIEALGHTWHDTCFICAVCHVNLEGQPFYSKKDRPLCKKHAHTINL	soluble
MAHHHHHHMANAELVDAGCFITQMNELLLIDPLYLNCAMTNYCNSYLSGKEELLPRERLNGIYFKNAKPGLWSSFAIRENSQAHLKKTAKQETETDAANRNDKNTYNNIRNEMVLSFVCFNNTNYMHQYLTVEEVDKLHWERMEPSEGHPGVGPTDKCSSTVDGDSKNEKVANFHNDRSELLPLENYFTNVLTIESGQAGLFCIDSIKNSADLLFQKHGMKNISSREQLDILFNQNMNDLYPWFDQICNLTMTSSVAVVDFMGMPIGCVCLSSSDCVVNYLCEVVRDEVTDEVWAIRVNFLAPLK	not soluble
MGSDKIHHHHHHMTIRGKAYIAGIYEHPTRHAPDKSIAQLHAEVAKGALDDAGLTKADIDGYFCAGDAPGGVMAMVDYLGLKVRHFDSTDTGGCSYLVHLGHAAEAIAAGRCSVALITLAGKPRTGALPPRPVGAEGDFELAYGATTHNVYAMCAARHMHQYGTTSEQLAWIKVAASHHAQYNEHAMLRDVVTVEDVLNSPLIADPLHRMDCCVVTDGGGALIVTTEEIARSLKKPLVRMIGAGEAIKGPRGGHNLDLTYSAGVWSAPPAFEMAGVTPKDIKYASIYDSFTITVLMQLEDLGFCEKGQGGKFVADGNLISGVGKLPFNTDGGGLCSNHPVNRGGMTKLLEAVRQLRGEAHPKVQVPNCDLAIAHGTGGMLGIRHAASTCILERV	not soluble
MGSDKIHHHHHHMYETFEKLPDGKKEQIIQVCIEEFIENGYQNASTNTIVKRLGISKGVLFLYFKNKKNLYLYLVEYIMEFFIQDYFEEYAGGPVININVFDNLGEYYKELMQKKPELFLFMLQAFVNTPAELKEEIDARHNQAHDSLFRHMNNEGFRPGIDIHLVDDLLHMVSYYVGQLITNDLKGKDLNTIIKDEINKNIVRYAELFAKYVDILKYGVYER	not soluble
MGSDKIHHHHHHMDMTTYPIYLVGGSKGGVGKSFVALALADYLLRQNIRAALVETDTSNPDVMKAVQDEMRCIAYNLDDADGWIGLVNFCDEQRDAAIVVNTAARSQTGVEQFGATLAGALGELQRRLVVLWVINRQRDSLELLHAFSKTFPDAVTNVVRNGYFGPAEKFTLYQGSQLRRSIEARGHSLDFPDLADRVADELRSQRMSIRKAAETMHIGERVELMRWRSLCDAMFARVTVDG	not soluble
ADDAKPRVKVPSSAKAGETVTVKALISHKMESGQRKDADGKLIPRSIINRFTCELNGVNVVDVAIDPAVSTNPYFEFDAKVDAAGEFKFTWYDDDGSVYEDVKPIAVA	soluble
MGSDKIHHHHHHMEQLRAELSHLLGEKLSRIECVNEKADTALWALYDSQGNPMPLMARSFSTPGKARQLAWKTTMLARSGTVRMPTIYGVMTHEEHPGPDVLLLERMRGVSVEAPARTPERWEQLKDQIVEALLAWHRQDSRGCVGAVDNTQENFWPSWYRQHVEVLWTTLNQFNNTGLTMQDKRILFRTRECLPALFEGFNDNCVLIHGNFCLRSMLKDSRSDQLLAMVGPGLMLWAPREYELFRLMDNSLAEDLLWSYLQRAPVAESFIWRRWLYVLWDEVAQLVNTGRFSRRNFDLASKSLLPWLA	not soluble
MGDVAGMAYLDSMSNEKVWFGYTLKEAQAQQIGLGLDLKGGMNVILKLNASDLLRNLSNKSLDPNFNKALENAAKSTEQSDFIDIFVKEYRKLDPNGRLAVIFGSGDLRDQITAKSTDADVVRLLKEKYNSAVEASFNVLRARIDAFGVVAPNLQRLEGQGRILVELPGVKDPERVRTLLQRSANLQFWRTYKFEEVSGDLIAANDRLSELAMNNTDATPETEPATTDSVAATADSAAVQAVADSATVAQKEAKDATRKDALFSLLTPVNRGGAVVGVARRANMAQISEMLQQAHDLKVTREDVLFLWGAKAIEDPETKKETDLYELYAIRTNRTGDPDLGGDVVTSAKSDIQNDFGRSEPIVSMTMNEEGARKWARITKDNVGRAIAIVLDGVVYSAPNVNDEITGGRSQISGHFTVEEAGDLANVLNSGKMDATVSIEQENVIGPTLGAESIKA	not soluble
MRSRRGLLIVLSGPSGVGKGTVRKELFSHEDTRFQYSISVTTRKPREGEVDGVDYFFKEREEFEEMIRNEKLLEWAEFVGNYYGTPIDYVEKTLQEGKDVFLEIEVQGAIQVKKAFPEGVFIFLAPPSLSELKNRIVGRGTETEDVIENRLTVAKEEIDMMDAYDYVVENDQVELACERIKAIVVGEHCRRERVAKYYKEMTEGL	not soluble
MAHHHHHHMSWQGPRVLVVGENQWEREAVSRALLNLAVRHGSPYGICYVDLDVAMPMVGCPGTVSAAFVEEPVTAPEDFGVMMPLTFFHGTASVTSATRKRYLDLCVCAAQAATSLGFANSKFEAGGFLIHSLSPSTEIQHDVLSDVLSIFAVTHVVVTGADRELEKFLYNAVLGRTVHFVRLPKLAGVQSPSSAGAEQRRRAQLERYFFGTPRTPLVPVRGVARMSELVLLHAETFEPLSWREVPDLGLAAVVWADTAASAAEANVAGFVALLEVGKQFVSFLAPSGGELPKPFLVVSPSLHLPRELVMPLPVT	not soluble
MAHHHHHHMGKKRFYAVAVGRQTGVFSTWEECQKQVSGFSGARFKSFLTLQEAQAYASGVQDVEPGSVGTSLVADSHTPVLVGVKRALSLDVTLDAVEVDAADDGNEVDDESKQQVLSPEWVEARKREAVVVYVDGACRNNGSRSRERRPRAGFGGFYGDGDSRNFKFPLPAHEPQTNQRAELSALIHVLRVALDSHPCYNLCVYSDSKYTVMGVNSYLHRWERNGFKTAGGGDVANIDLWSQLTKLRNRHLSRCAERFTMEFRFKASLAAIAARAVALQLKHVPGHAGVYGNEMADRLAVEACESPFG	not soluble
MSYQIQYNDFPTFLRKHFPYKVQKISLNAGFTCPNRDGTKGWGGCTYCNNQTFNPDYCRTEKSIATQLEEGKCFFAHKYPEMKYLAYFQAYTNTYAELEGLKRKYEEALQVDGVVGLVIGTRPDCMPEELLQYLEELNRHTFLMVEYGIESASDETLRRINRGHTYADTVEAVQRTAACGILTGGHVILGLPGETHDTMVEQAGILSALPLSTLKIHQLQLIRGTRMAHEYEENPE	not soluble
MLEFSSEVSLLDSVKNILLEYGLRFQEPQIEKVDKYIEELLGVPYNLTAHRDLDSAVHKNVVEILLPLKEELKGTLLDVGSGNGVPGLILAIFFSKLKVVLLDSREKSVNFLRGVIEKLDLENVSVVKERAENFSKERREEFDYVTARAVARLNVLVEICTPALKTGGKLLFYKGPSYIEELKEAQRAMKELKVELEKVREYSLKTGERRALLILRKYESSPEKYPRRVGVPFKRPLL	soluble
MTIAIVIGTHGWAAEQLLKTAEMLLGEQENVGWIDFVPGENAETLIEKYNAQLAKLDTTKGVLFLVDTWGGSPFNAASRIVVDKEHYEVIAGVNIPMLVETLMARDDDPSFDELVALAVETGREGVKALKAKPFAG	soluble
MKNSFQTLKTLTTKSGTYGYYDLQELERKGVAEVSRLPFSIRVMLESLLRNEDGYQVTREDIEALARWRPDPGEINVPLKLARVILQDFTGVPAVVDLAAMRDAIKAKGGDPKRINPVVPADLVIDHSVQVDAFGTAYAFFYNVEKEYERNRERYLLLKWAQNALENFRVVPPGTGIVHQVNIEYLTKVVMTGKRDGLTLAFPDSLVGTDSHTTMVNGLGVLGWGVGGIEAEAVMLGQPYYMLAPRVVGFKLYGELPEGATATDLVLTVTEMLRKHGVVGKFVEFYGPGVAKLSTPDRATIANMAPEYGATMGFFPVDEETLNYLRQTGRPEELVELVEAYTKAVGLFRTPEAEEKVQYSEYLELDLSAVEPSLAGPKRPQDRVPLKEVKKSFLAHLTKPVKERGFGLSEDQLQRKVLVKRRDEEFELTHGSVVIAAITSCTNTSNPSVMLGAGLLAKKAVEAGLDRKPWVKTSLAPGSKVVTDYLEMSGLMPFLEALGFHLVGYGCTTCIGNSGPLPEDIAKAVEEGNLVVAAVLSGNRNFEGRINPHVKANYLASPMLVVAYALAGRMDIDFTTEPLGFDPNGKPIYLKDIWPSMEEIREAIRKTLDPELFKKEYSKVFEGDERWQALPAPTGELYQWDPESTYIQNPPFFEDLGERKVEDIRGARVLLVLGDSVTTDHISPAGAIPVKSPAGQYLISKGVKPEDFNSYGSRRGNHEVMMRGTFANIRIKNLMLDGIEGGYAKKLPEGDVDFVYNVAMRYKAEGTPLLVIAGKEYGTGSSRDWAAKGTYLLGIRAVLAESFERIHRSNLVGMGVLPLEFLPGENRETLGLTGYEVYDILGLEDLKPRKLVDIVARREDGSEVRFQAIARLDTPVEVDYYKNGGILQTVLLNMLKEAKATE	soluble
